{"source": "paper PMC3361719", "origin": "cited, not measured here", "molecular_target": "p67phox SH3 (Homo sapiens) (UniProt P19878)", "sequence (P19878 457-516)": "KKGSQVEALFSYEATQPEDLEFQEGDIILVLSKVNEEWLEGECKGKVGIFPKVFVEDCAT", "data": [{"substance": "p47phox PRR and 368-390 (from UniProt P14598)", "values": [{"measurement": "Kd", "value": 20, "unit": "nM"}]}]}
